{"source": "paper PMC6372160", "about": "“Biophysical and structural characterization of a zinc-responsive repressor of the MarR superfamily” (PLoS ONE, 2019)", "key": {"[1]": {"target": "the molecule itself", "assay": "SEC-MALS; 50 ul of fully purified protein at approximately 1-4 mg/ml on a KW-803 column (Shodex), 0.5 ml/min, supplemented with 1 uM ZnSO4 (untreated protein)"}, "[2]": {"target": "the molecule itself", "assay": "SEC; gel filtration at the end of purification, 20 mM Tris-HCl (pH 7.0), 200 mM NaCl, 100 uM ZnSO4; data not shown"}}}
{"protein": "ZitR protein of Lactococcus lactis subspecies cremoris strain MG1363, untagged recombinant (S2A, A4R, D8E) form (natural protein, UniProt A2RNS2 1-145, looked up, A minor tetrameric form was also seen at the end of the purification; also called ZitRMG; holo-ZitRMG) MALRNQIEQFLGAIMQFAENKHEILLGECESNVKLTSTQEHILMILAAEVSTNARIAEQLKISPAAVTKALKKLQEQELIKSSRATNDERVVLWSLTEKAIPVAKEHAAHHEKTLSTYQELGDKFTDEEQKVISQFLSVLTEEFR", "values": [{"measurement": "stoichiometry N", "setting": "[1]", "value": 2}, {"measurement": "stoichiometry N", "setting": "[2]", "value": 4}]}
